Data: US20120213774A1 (Hoffmann-La Roche, published 2012)
Where a chain is given by its changes, count along the chain named.

B1: Antibody ra170 (rabbit IgG1) (antibody, V domains shown)
VH: QSVEESGGRLVTPGTPLTLTCTVSGFSLSSHDMSWVRQAPGKGLEWIGYIWSDDNTYYASWAKGRFTISKTSTTVDLKITSPTTEDTATYFCARDQYRSSGVSDYDIWGPGTLVTVSS
VL: AAVLTQTPSPVSAAVGGTVTISCQSSQSVGNNNDLAWYQQKPGQPPKILIYKASTLASGVPSRFEGSGSGTQFTLTISDVQCDDAATYYCLGGYDDDADNTFGGGTEVVVK
notes: Rabbit monoclonal from B cell cloning; they are assigned to this molecule; also called Mab ra170; clone Ra170
B2: humanized ra170 10.12 (antibody, V domains shown)
VH: VQLVQSGAEVKKPGASVKVSCKASGFSLSSHDISWVRQAPGQGLEWMGYIWSDENTYYASWAQGRVTMTTDTSTSTAYMELRSLRSDDTAVYYCARDQYRSSGVSDYDIWGPGTLVTVSS
VL: AAVMTQSPATLSVSPGERATLSCRSSQSVGNNNDLAWYQQKPGQAPRLLIYKASTRATGIPARFSGSGSGTEFTLTISSLQSEDFAVYYCLGGYDDDADNTFGGGTKVEIK
B3: humanized ra170 11.12 (antibody, V domains shown)
VH: B2 VH with N55S
VL: B2 VL
B4: ra170 IgG4 SPLE (antibody, V domains shown)
VH: B1 VH
VL: AAVLTQTPSPVSAAVGGTVTISCQSSQSVGNNNDLAWYQQKPGQPPKILIYKASTLASGVPSRFEGSGSGTQFTLTISDVQCDDAATYYCLGGYDDDADNTFGGGTEVVVKR

Columns and labels:
[1] = target: T1, human IL33R (ST2) on human cells (human, UniProt Q01638 19-556); experiment: cell-based or functional assay
T1 sequence (looked up): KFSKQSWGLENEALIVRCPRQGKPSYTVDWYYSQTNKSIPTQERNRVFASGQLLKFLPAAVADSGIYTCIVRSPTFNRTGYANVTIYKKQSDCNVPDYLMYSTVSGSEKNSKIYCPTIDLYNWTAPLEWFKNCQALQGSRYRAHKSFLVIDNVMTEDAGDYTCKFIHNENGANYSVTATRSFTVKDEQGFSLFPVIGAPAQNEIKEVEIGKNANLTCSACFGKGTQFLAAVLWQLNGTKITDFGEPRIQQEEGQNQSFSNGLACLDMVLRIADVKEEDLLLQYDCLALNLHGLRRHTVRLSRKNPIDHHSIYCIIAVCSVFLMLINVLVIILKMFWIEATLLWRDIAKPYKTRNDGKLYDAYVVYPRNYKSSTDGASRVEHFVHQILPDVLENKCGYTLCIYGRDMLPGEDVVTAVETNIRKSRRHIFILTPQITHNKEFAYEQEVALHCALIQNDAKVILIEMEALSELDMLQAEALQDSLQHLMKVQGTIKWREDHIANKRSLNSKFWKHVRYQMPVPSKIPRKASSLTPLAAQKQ

[2] = target: cynomolgus IL33R (ST2) on cynomolgus NK cells (cynomolgus); experiment: cell-based or functional assay
[3] = target: T1, human IL33R (ST2) on human cells; experiment: cell-based or functional assay; remark: listed apart in the source
[4] = target: T2, recombinant cyno ST2 Fc chimera (cynomolgus); experiment: competition ELISA: antibody against biotinylated human IL33 on captured cyno ST2 Fc chimera
T2 construct: also called cynomolgus ST2
Description: (§1) The test was performed on 384 well MaxiSorp™ microtiter plates (Sigma-Aldrich, Nunc. DE, Cat. No. 464718) at RT. After each incubation step plates were washed 3 times with PBST (Phosphate Buffered Saline Tween®-20). […] Thereafter the wells were blocked with PBS supplemented with 0.1% Tween®-20 and 2% BSA (Roche Diagnostics GmbH, DE) for 1 h. […] Dilutions of purified antibodies or supernatants from hybridoma/B-cells in PBS with 0.5% BSA and 0.05% Tween®-20 were incubated with the receptor protein for 1 h. Biotinylated human IL33 (PeproTech, US, Cat No. 500-P261) was added for an additional hour to build up the complex. IL33 was biotinylated with Sulfo-NHS-LC-Biotin (Thermo Scientific Pierce, US, Cat. No. 21327) according to the manufacturer's protocol and purified using Zeba™ Desalt Spin Column (Thermo Scientific Pierce, US, Cat. No. 89889). Binding of the biotinylated IL33 to the complex was detected with 1:4000 diluted streptavidin HRP (Roche Diagnostics GmbH, DE, Cat. No. 11089153001). After 1 h the plates were washed 6 times with PBST and developed with freshly prepared BM blue POD substrate solution (BM blue: 3,3′-5,5′-Tetramethylbenzidine, Roche Diagnostics GmbH, DE, Cat. No. 11484281001) for 12 minutes at RT. Absorbance was measured at 370 nm. […]

[5] = target: T3, recombinant human ST2/IL-1R4 Fc chimera (R&D Systems, Cat. No. 523-ST) (human, UniProt Q01638 19-328); experiment: competition ELISA: antibody against biotinylated human IL33 on captured human ST2/IL-1R4 Fc chimera
T3 construct: Bought product; also called ST2/IL-1R4 protein; not shown: Fc part of the bought chimera (captured by anti-human IgG Fc)
T3 sequence (looked up): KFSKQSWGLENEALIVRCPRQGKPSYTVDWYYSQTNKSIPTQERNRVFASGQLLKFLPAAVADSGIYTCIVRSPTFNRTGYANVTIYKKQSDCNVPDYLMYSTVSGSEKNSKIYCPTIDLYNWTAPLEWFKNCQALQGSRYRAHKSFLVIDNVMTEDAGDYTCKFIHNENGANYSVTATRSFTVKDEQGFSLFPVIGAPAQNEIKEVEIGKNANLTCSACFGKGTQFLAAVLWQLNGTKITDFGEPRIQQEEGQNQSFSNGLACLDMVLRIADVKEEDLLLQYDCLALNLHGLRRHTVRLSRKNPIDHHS
Description: as §1

[6] = target: T4, Monomeric human ST2 ECD with 6His Avitag (human, UniProt Q01638 19-328); experiment: SPR (BIACORE T100, 37 C, pH 7.4), antibody captured by anti-human Fc, monomeric ST2 ECD in solution
T4 construct: extracellular domain; also called human ST2 ECD (His-Avitag monomer); not shown: 6His Avitag
T4 sequence (looked up): T3 sequence (looked up)
Description: (§2) Monomeric human ST2 ECD with 6His Avitag™ (Avidity, LLC, US) was added in various concentrations in solution. Association was measured by injection of ST2 ECD for a contact time of 120 sec. (single cycle-kinetic) at 37° C.; dissociation was measured by washing the chip surface with buffer for 1800 sec. at 37° C. For calculation of apparent KD and other kinetic parameters the Langmuir 1:1 model was used.

[7] = target: T4, Monomeric human ST2 ECD with 6His Avitag; experiment: SPR (BIACORE T100, 37 C, pH 7.4), antibody captured by anti-human Fc, monomeric ST2 ECD in solution, apparent KD, 1:1 model
Description: as §2

Binder	IC50, GM-CSF release of KU812 basophil cells stimulated with IL33 [1] [nM]	IC50, IFN-γ secretion by human NK cells stimulated with IL33 and IL-12 [1] [nM]	IC50, IL-5 release of KU812 basophil cells stimulated with IL33 [1] [nM]	IC50, IL-5 release of human Th2 cells restimulated with IL33 [1] [nM]	IC50, IL-5 release of primary mast cells stimulated with IL33 [1] [nM]	IC50, IL-13 release of KU812 basophil cells stimulated with IL33 [1] [nM]	IC50, IL-13 release of human Th2 cells restimulated with IL33 [1] [nM]	IC50, IL-13 release of primary mast cells stimulated with IL33 [1] [nM]	IC50, eosinophil viability (IL33 dependent survival) [1] [nM]	IC50, IFNγ release of cynomolgus NK cells stimulated with human IL33 and cynomolgus IL-12 [2] [nM]	NFkB IC50 [3] [nM]	IC50 [4] [nM]	IC50 [5] [nM]	koff [6] [s⁻¹]	kon [6] [M⁻¹ s⁻¹]	t1/2 [6] [min]	Kd [7] [nM]
B1	1.31	0.27	1.48	2.77	≤ 0.2	3.49	1.1	≤ 0.4	1.3	0.109	0.025	0.13	0.32				
B2		1.3									0.28			0.0051	4.9e+06	2	1.1
B3		1.8									0.04			0.00043	3.1e+06	27	0.14
B4														1.3e-05	4.6e+06	881	0.0027
